In patent US11781164B2, “Demethylation of reticuline and derivatives thereof with fungal cytochrome P450” (priority 2017, dated 2023):

Tests used:
[1] = tested on: codeine; assay: In vitro N-demethylation of codeine by mammalian cytochrome P450s in crude yeast cell lysates; settings: crude cell extract with human CPR and cytochrome b5; 0.2 mM substrate, pH 7, 30° C., approximately 20 hours; compared to negative control strain without cytochrome P450s
[2] = tested on: salutaridine; assay: In vitro N-demethylation of salutaridine by mammalian cytochrome P450s in crude yeast cell lysates; settings: crude cell extract with human CPR and cytochrome b5; 0.2 mM substrate, pH 7, 30° C., approximately 20 hours; compared to negative control strain without cytochrome P450s
[3] = tested on: thebaine; assay: In vitro N-demethylation of thebaine by mammalian cytochrome P450s in crude yeast cell lysates; settings: crude cell extract with human CPR and cytochrome b5; 0.2 mM substrate, pH 7, 30° C., approximately 20 hours; compared to negative control strain without P450s
[4] = tested on: oripavine; assay: In vitro N-demethylation of oripavine by mammalian cytochrome P450s in crude yeast cell lysates; settings: crude cell extract with human CPR and cytochrome b5; 0.2 mM substrate, pH 7, 30° C., approximately 20 hours; compared to negative control strain without cytochrome P450s
[5] = tested on: thebaine; assay: Conversion of thebaine by demethylases heterologously expressed in Aspergillus nidulans; settings: 0.5 mM thebaine, Minimal Medium pH 7, 84 hours; supernatant, LC-MS
[6] = tested on: thebaine; assay: In planta conversion of thebaine by transient expression of demethylases and CPRs in Nicotiana benthamiana leaves; settings: co-expressed with CPR_DN10898_c0_g1_i1_co or Cel_CPR_co; leaves re-infiltrated with 0.5 mM thebaine after 4 days, measured 1 day after
[7] = tested on: oripavine; assay: Bioconversion of oripavine (N-demethylation to nororipavine) by S. cerevisiae expressing cytochrome P450s and CPRs, LC-MS; settings: 0.5 mM oripavine
[8] = tested on: thebaine; assay: Bioconversion of thebaine (N-demethylation to northebaine) by S. cerevisiae expressing cytochrome P450s and CPRs, LC-MS; settings: 0.5 mM thebaine
[9] = pH 7, 72 h, co-expressed with native or codon-optimized T. piriforme CPRs or Cel_CPR
[10] = pH 7, 72 h, co-expressed with Cel_CPR
[11] = pH 7, co-expressed with Cel_CPR_co, 72 h

Hs_CYP3A4: Cytochrome P450 3A4 (P08684), Homo sapiens
in vitro N-demethylation activity on codeine [1]: detected
in vitro N-demethylation activity on salutaridine [2]: detected
in vitro N-demethylation activity on Thebaine [3]: detected
in vitro N-demethylation activity on oripavine [4]: detected

B1: Mc_S2JT25_co: codon-optimized cytochrome P450 S2JT25 from Mucor circinelloides (protein)
chain: MTLIASYNQTLLERVISVVRKNKTSYIGMAILCVVLQQVYASFTVPPKYLRRYPTVSFFEMMKSFYRKESVLNRNKRLVTPLTNAGHGFYVCRIPLDWTIYVTDPIAAKTLLLKTDNFPKSHAIFGALGESSPAVKFMGSENVAVSNGEMWKKQRKIMNPAFHRSQPVKLFGGVMPDLFALIDQDPEHVFVAPRMKSFALDALGLSAFGFDFQSLKGDPEGWTSKYNTVISTLFNPFINLFAKYDFLIKYISPERRRVIKATDEFNVMLSNLADKRRQEILDGEKKDMAENEKDLLTLMIEADIREGVETTTTELRHNMAIFFLAGHDTTANTLALCLYQLAKHKHVQKKARQEVLDILGDDPCDVTPTLEDLKKLNYVNMVIKENLRRNSPVDNLMARDTHQDIDLNGTFIPKGSKVTVNVASIHLNPKIWHDPESFIPERFEPGGEYDGHDGFTWIPFSNGSRQCLGLNFSLTEQRVVLCMLLKRYEIEIPKDSIHYNEIVFDKPFTFAPQSLELSFKKRY
modifications: codon-optimized; Mucor circinelloides
northebaine production in Aspergillus nidulans vs vector control [5]: production of northebaine was achieved
northebaine levels in N. benthamiana leaves vs negative P19 control [6]: clear increase in northebaine
amount of nororipavine compared to Lr_P450_co [7, 9]: resulted in the highest amount of nororipavine
northebaine amount compared to Lr_P450_co [8, 9]: yielded the highest northebaine amount

B2: Ps_CODM_co: O-demethylase D4N502 from Papaver somniferum, codon optimized; positive control (protein, listed as Papaver somniferum)
chain: METPILIKLGNGLSIPSVQELAKLTLAEIPSRYTCTGESPLNNIGASVTDDETVPVIDLQNLLSPEPVVGKLELDKLHSACKEWGFFQLVNHGVDALLMDNIKSEIKGFFNLPMNEKTKYGQQDGDFEGFGQPYIESEDQRLDWTEVFSMLSLPLHLRKPHLFPELPLPFRETLESYLSKMKKLSTVVFEMLEKSLQLVEIKGMTDLFEDGLQTMRMNYYPPCPRPELVLGLTSHSDFSGLTILLQLNEVEGLQIRKEERWISIKPLPDAFIVNVGDILEIMTNGIYRSVEHRAVVNSTKERLSIATFHDSKLESEIGPISSLVTPETPALFKRGRYEDILKENLSRKLDGKSFLDYMRM
modifications: codon-optimized
conversion of thebaine into oripavine in N. benthamiana leaves vs negative control [6]: capable of converting thebaine into oripavine
northebaine levels in N. benthamiana leaves vs negative P19 control [6]: not apparent

B3: P450_DN5615_c2 g1_i9_co: codon-optimized cytochrome P450 candidate from Cunninghamella echinulata (protein, listed as Cunninghamella echinulata)
chain: MSQFISTISQYWDVNNFIDQQAWSRFYETYLLKYTDSKAKRLTIGVSVSLLLLGYGIKRLLTPPKHLRHIKHASFLRFTYNFVIKGVTPKEMHTTVSKKIVEENNGFYLQLERTGWVVYVANPEAVKQVLLKSDIFPKMDFSKLASEEGSYFEKFIGFKNILMTTGSEWLKHRKLTNPAFHRSLPAKLFGETAQGLFKIWDNEYNDKPFEVNIHNMNERITLDIIGKAGFAFDFNAVADEKSPWKKTYDIINTAASDPLFFMFPILENKLLWLFPKRQESFKKLDEWKAMLTSVIENKRRLLKDNIDQGVEEAEKDLLTLMIESEFRGEGVLTKEELIGNLTVFFLAGHDTTSFALTSAIYYMARYPEIQEKARQEVNSILCPNGEPNEGILPTIEDTKKLVYLNQIMKESMRIGNPVLFLLSPRQATKDFNLNGTFIPKGTQVNINIHDLHHSSNVWDDPDTFNPDRFAPGGEADKKTGIAWVPFSNGSRQCLGMNFSLLEQRVILSCLLRKYEWTLPENSIHKNDMISKFDLIPSPIDMKIRFERRY
modifications: codon-optimized
demethylase activity towards oripavine (nororipavine), C. echinulata P450 candidates [7, 10]: displayed demethylase activity towards thebaine and oripavine
demethylase activity towards thebaine (northebaine), C. echinulata P450 candidates [8, 10]: displayed demethylase activity towards thebaine and oripavine

B4: P450_DN12791_co: P450_DN_12791 from T. piriforme, codon optimized for S. cerevisiae (pEV32227) (protein)
chain: MAILQNLVLQSDQRHLGVVTAAVFLSAYALYRHESKKELGNECPTVPYTNPMFGSTDEYRKNPAAFVEKWSAALGPVFRVHIFGRMQTVVSGRYVREVLFNDNFSFVEGIRTRFDLRLLTGIPNSHLNDKDVREVVVKSLTAQMKKYTPRAVHYLSVGLQEALGDLKDPRTLDNLFLTVQNMVAKASASIFVGEELCNNIELVDTFKHVTSDIGSEIRLDNTWLEFFKTINQIRMWYVGKHSPRVTKHRRQLIQAMAPEIDRRLQGLAGNDPSWTRPEDILQEIMENYPSPSTVPADIYTYYANWMIVLIFASVHTTTEHATIVLYRLLQQPELIDELLQEQKEALGQGTVFTGEVIRKLVKLDSVCRESLRIKNEYFGLPHRNMSHENISLSNGVVIKPGDNVMLNVWTNHHDSDLQKDVHGNHDKFEPFRYVNADRPATKIGDDYLIFGEGKHACPGRWFALQEIKTIVSVLIRDYTLTPCGPIVFPSGTSTGIPSGEVTIQRKSEV
modifications: codon-optimized; Thamnostylum piriforme
northebaine production in Aspergillus nidulans vs vector control [5]: production of northebaine was achieved
nororipavine titers [7, 11]: highest nororipavine titers
thebaine N-demethylation activity ([8]; pH 7, co-expressed with Cel_CPR_co, 72 h, no significant difference between codon optimized and non-codon optimized versions): lower

B5: Hs_CYP3A5: Cytochrome P450 3A5 (P20815), Homo sapiens (protein, UniProt P20815 1-502, looked up)
Cytochrome P450 3A5: MDLIPNLAVETWLLLAVSLVLLYLYGTRTHGLFKRLGIPGPTPLPLLGNVLSYRQGLWKFDTECYKKYGKMWGTYEGQLPVLAITDPDVIRTVLVKECYSVFTNRRSLGPVGFMKSAISLAEDEEWKRIRSLLSPTFTSGKLKEMFPIIAQYGDVLVRNLRREAEKGKPVTLKDIFGAYSMDVITGTSFGVNIDSLNNPQDPFVESTKKFLKFGFLDPLFLSIILFPFLTPVFEALNVSLFPKDTINFLSKSVNRMKKSRLNDKQKHRLDFLQLMIDSQNSKETESHKALSDLELAAQSIIFIFAGYETTSSVLSFTLYELATHPDVQQKLQKEIDAVLPNKAPPTYDAVVQMEYLDMVVNETLRLFPVAIRLERTCKKDVEINGVFIPKGSMVVIPTYALHHDPKYWTEPEEFRPERFSKKKDSIDPYIYTPFGTGPRNCIGMRFALMNMKLALIRVLQNFSFKPCKETQIPLKLDTQGLLQPEKPIVLKVDSRDGTLSGE
in vitro N-demethylation activity on codeine [1]: detected
in vitro N-demethylation activity on salutaridine [2]: detected
in vitro N-demethylation activity on Thebaine [3]: detected
in vitro N-demethylation activity on oripavine [4]: detected

B6: Lr_P450_co: P450 from Lichtheimia ramosa, codon optimized for S. cerevisiae (protein, listed as Lichtheimia ramosa)
chain: MTEIKEHIYRYRHYIGVAAAVALVCQQVYYRIFRIPKNLRHIPAIPYGQQLKALRSDEALTSRTKRLVFPLLSKCNGVYLNRMPFKWTIYVADPEIARAILFKPEFGHKTRSVTDSLDKNSSLFEFVGDDNIAIVNGHEWKEQRKIMNPAFHRATPVGMFGSLMPKVFRLVEEQPTLPALDLMQKLTLDALGKSVFGFEFGALDDPDSVWVKTYRQVFDSFTDVFSLVFPRLDPIYRYFSAKHREQYNAVYKLIDLLDGMADKKRSMLQDASNSDIKDVPDHEKDLLQLMLEAELRGEGSWTKRELRHNMAIFFVAGQDTTSHALTFCLYLLAKNQDIQKKAREEILNVFGDEPKDVFPTLEDCKKLNYLDMVIKESMRIYPPANDVLARDVNEDLNVKGVFIPKGSMVSVDIHALHHRPDLWHEPDKFNPDRFLPGGEHDSHVGVTYAPFSSGSRQCIALKFATMQQRVVLSMLLRKYEWELPKDSKHKDSIQFQIPFNIAPKDLELTFHKRY
modifications: codon-optimized
northebaine production in Aspergillus nidulans vs vector control [5]: not apparent
northebaine levels in N. benthamiana leaves vs negative P19 control [6]: clear increase in northebaine
activity towards thebaine, converting it to northebaine ([8]; pH 7, 72 h, co-expressed with CPR_DN5866_c0_g1_i1_Cd9, CPR_DN10898_c0_g1_i1_1A or Cel_CPR_co (at least one of the tested CPRs)): performing the best conversion of thebaine into northebaine
northebaine titer [8, 11]: more than 7 mg/L
northebaine titers higher compared to P450_DN15259_co [8, 11]: 2 fold
